For this assay, the target named is T1, CXCR2 on the surface of neutrophils (primary neutrophils from blood of C57BL/6 mice) (mouse, UniProt P35343 1-359).
T1 construct: whole, on cells; No CXCR2-specific control is reported
T1 sequence (looked up): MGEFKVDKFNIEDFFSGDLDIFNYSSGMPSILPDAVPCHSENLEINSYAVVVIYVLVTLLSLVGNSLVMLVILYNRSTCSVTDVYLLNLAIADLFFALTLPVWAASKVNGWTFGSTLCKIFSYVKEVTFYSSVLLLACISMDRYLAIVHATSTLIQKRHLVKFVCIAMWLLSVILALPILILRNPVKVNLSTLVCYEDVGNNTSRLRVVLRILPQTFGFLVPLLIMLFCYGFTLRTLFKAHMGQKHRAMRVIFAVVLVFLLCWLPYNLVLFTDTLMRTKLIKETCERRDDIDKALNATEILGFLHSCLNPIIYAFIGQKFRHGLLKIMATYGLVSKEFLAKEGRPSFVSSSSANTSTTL
The assay can be described thus: flow cytometry on primary mouse blood neutrophils, anti-His tag PE detection. Background: A flow cytometer gives signals particle by particle.

This note sets out measurements from EP4741425A1 (Shenzhen Synthetica Pioneering Co., Ltd., dated 2026).

B1: Nb127D01 (VHH)
VHH: EVQLVESGGGLVQAGESLRLSCAASGSTFDFKVMGWYRQPPGKQREGVAAIRLSGNMHYAESVKGRFAISKANAKNTVYLQMNSLRPEDTAVYYCKVNIRGQDYWGQGTQVTVSS
notes: Expressed in E. coli BL21(DE3) as signal peptide + nanobody + HA-His tag and purified on a nickel column by the His tag; The signal peptide is left out here as a secretion signal; also called Nb127D01-HA-his; not shown: HA-His tag linked directly to the C-terminus
In the case of B1, the binding result is listed as “binds”.

B2: Nb163E3 (VHH)
VHH: EVQLVESGGGLVQPGGSVRLSCVASGRIFSSNAMGWFRQAPGKEREFVAAITWRSGGSAYYADSAKGRFTISRDNAKNTVYLQMNSLKPEDTAVYYCAAGGSSWLSFPPDYWGQGTQVTVSS
notes: Expressed in E. coli BL21(DE3) as signal peptide + nanobody + HA-His tag and purified on a nickel column by the His tag; The signal peptide is left out here as a secretion signal; also called Nb163E3-HA-his; not shown: HA-His tag linked directly to the C-terminus
Consider B2, for which the binding result is recorded as “binds”.
